Experimental data taken from the supplement of paper PMC7877785.
± gives the uncertainty stated by the source.

Test: self-splicing fitness, log relative to wild type (ln ratio); higher = more splicing; Tetrahymena group I intron in knt gene, E. coli kanamycin selection, DiMSum; sequences stand for … in CUCUCU…GGAGGGAAAAGUUAUCAGGCAUGCACCUGGUAGCUAGUCUUUAAACCAAUAGAUUGCAUCGGUUUAAAAGGCAAGACCGUCAAAUUGCGGGAAAGGGGUCAACAGCCGUUCAGUACCAAGUCUCAGGGGAAACUUUGAGAUGGCCUUGCAAAGGGUAUGGUAAUAAGCUGACGGACAUGGUCCUAACCACGCAGCCAAGUCCUAAGUCAACAGAUCUUCUGUUGAUAUGGAUGCAGUUCACAGACUAAAUGUCGGUCGGGGAAGAUGUAUUCUUCUCAUAAGAUAUAGUCGGACCUCUCCUUAAUGGGAGCUAGCGGAUGAAGUGAUGCAACACUGGAGCCGCUGGGAACUAAUUUGUAUGCGAAAGUAUAUUGAUUAGUUUUGGAGUACUCGUGGUCG
How it was run: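 Six replicate transformations of E. coli BL21(DE3) with a pET-22b(+) library were grown overnight at 37°C or 30°C. The library randomised all eight P1ex-region intron nucleotides, the intron lying in the knt kanamycin-resistance gene, and plates were LB agar with or without 25 μg/mL kanamycin plus 100 μg/mL carbenicillin, 50 μM IPTG and 0.2% rhamnose. Pooled colonies were amplicon-sequenced on an Illumina HiSeq 2500, and fitness is the DiMSum error-weighted combination of wild-type-normalised replicate fold changes, kanamycin versus none.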

Sequence: UUUCAGCAAUAUUACGCAGA
- self-splicing fitness (ln) (30 °C): -1.32 ± 0.27
- self-splicing fitness (ln) (37 °C): -1.6 ± 0.24

Sequence: UUUCAGCAAUAUUACGCAGG
- self-splicing fitness (ln) (30 °C): -2.53 ± 0.18
- self-splicing fitness (ln) (37 °C): -1.65 ± 0.23

Sequence: UUUCAGCAAUAUUACGCAUA
- self-splicing fitness (ln) (30 °C): -2.13 ± 0.21
- self-splicing fitness (ln) (37 °C): -0.691 ± 0.17

Sequence: UUUCAGCAAUAUUACGCCCC
- self-splicing fitness (ln) (30 °C): -1.57 ± 0.3

Sequence: UUUCAGCAAUAUUACGCUGA
- self-splicing fitness (ln) (30 °C): -3.32 ± 0.47
- self-splicing fitness (ln) (37 °C): -2.24 ± 0.42

Sequence: UUUCAGCAAUAUUACGCUUC
- self-splicing fitness (ln) (30 °C): -0.771 ± 0.21
- self-splicing fitness (ln) (37 °C): -2.33 ± 0.38

Sequence: UUUCAGCAAUAUUACGUCAG
- self-splicing fitness (ln) (30 °C): -0.968 ± 0.089
- self-splicing fitness (ln) (37 °C): -0.726 ± 0.12

Sequence: UUUCAGCAAUAUUACGUCGA
- self-splicing fitness (ln) (30 °C): -1.11 ± 0.11
- self-splicing fitness (ln) (37 °C): -1.25 ± 0.12

Sequence: UUUCAGCAAUAUUACGUGCC
- self-splicing fitness (ln) (30 °C): -3.44 ± 0.25
- self-splicing fitness (ln) (37 °C): -1.57 ± 0.23

Sequence: UUUCAGCAAUAUUACGUGUA
- self-splicing fitness (ln) (30 °C): -2.47 ± 0.12
- self-splicing fitness (ln) (37 °C): -1.57 ± 0.1

Sequence: UUUCAGCAAUAUUACGUUCU
- self-splicing fitness (ln) (37 °C): -1.89 ± 0.21

Sequence: UUUCAGCAAUAUUACGUUGA
- self-splicing fitness (ln) (37 °C): -1.85 ± 0.34

Sequence: UUUCAGCAAUAUUACGUUGU
- self-splicing fitness (ln) (30 °C): -3.23 ± 0.21
- self-splicing fitness (ln) (37 °C): -2.06 ± 0.15

Sequence: UUUCAGCAAUAUUACGUUUU
- self-splicing fitness (ln) (30 °C): -3.86 ± 0.23
- self-splicing fitness (ln) (37 °C): -1.13 ± 0.14

Sequence: UUUGAGCAAUAUUACGAGCG
- self-splicing fitness (ln) (37 °C): -1.88 ± 0.35

Sequence: UUUGAGCAAUAUUACGCAAA
- self-splicing fitness (ln) (30 °C): -2.8 ± 0.25
- self-splicing fitness (ln) (37 °C): -2.25 ± 0.21

Sequence: UUUGAGCAAUAUUACGCCAA
- self-splicing fitness (ln) (37 °C): -1.56 ± 0.27

Sequence: UUUGAGCAAUAUUACGCCGA
- self-splicing fitness (ln) (30 °C): -2.3 ± 0.42
- self-splicing fitness (ln) (37 °C): -1.61 ± 0.41

Sequence: UUUGAGCAAUAUUACGCCUC
- self-splicing fitness (ln) (37 °C): -0.879 ± 0.39

Sequence: UUUGAGCAAUAUUACGCGAC
- self-splicing fitness (ln) (30 °C): -2.15 ± 0.35

Sequence: UUUGAGCAAUAUUACGGACU
- self-splicing fitness (ln) (30 °C): -4.55 ± 0.34
- self-splicing fitness (ln) (37 °C): -2.99 ± 0.23

Sequence: UUUGAGCAAUAUUACGGCCU
- self-splicing fitness (ln) (30 °C): -3.9 ± 0.4
- self-splicing fitness (ln) (37 °C): 0.167 ± 0.26

Sequence: UUUGAGCAAUAUUACGGCGC
- self-splicing fitness (ln) (30 °C): -2.21 ± 0.35

Sequence: UUUGAGCAAUAUUACGGGGU
- self-splicing fitness (ln) (37 °C): -2.11 ± 0.26

Sequence: UUUGAGCAAUAUUACGGUCA
- self-splicing fitness (ln) (30 °C): -1.47 ± 0.28
- self-splicing fitness (ln) (37 °C): -3.07 ± 0.4

Sequence: UUUGAGCAAUAUUACGGUCG
- self-splicing fitness (ln) (30 °C): -3.78 ± 0.21
- self-splicing fitness (ln) (37 °C): -1.73 ± 0.19

Sequence: UUUGAGCAAUAUUACGUCGG
- self-splicing fitness (ln) (30 °C): -3.06 ± 0.21
- self-splicing fitness (ln) (37 °C): -1.28 ± 0.18

Sequence: UUUGAGCAAUAUUACGUCUU
- self-splicing fitness (ln) (30 °C): -3.77 ± 0.32
- self-splicing fitness (ln) (37 °C): -3.16 ± 0.43

Sequence: UUUGAGCAAUAUUACGUUGG
- self-splicing fitness (ln) (30 °C): -3.37 ± 0.28
- self-splicing fitness (ln) (37 °C): -2.26 ± 0.26

Sequence: UUUGAGCAAUAUUACGUUUU
- self-splicing fitness (ln) (30 °C): -3.55 ± 0.19
- self-splicing fitness (ln) (37 °C): -2.65 ± 0.17

Sequence: UUUUAGCAAUAUUACGACCA
- self-splicing fitness (ln) (30 °C): -0.399 ± 0.34
- self-splicing fitness (ln) (37 °C): -0.577 ± 0.37

Sequence: UUUUAGCAAUAUUACGACCG
- self-splicing fitness (ln) (30 °C): 1.81 ± 0.28
- self-splicing fitness (ln) (37 °C): -1.19 ± 0.4

Sequence: UUUUAGCAAUAUUACGAGUG
- self-splicing fitness (ln) (30 °C): -1.75 ± 0.13
- self-splicing fitness (ln) (37 °C): -1.26 ± 0.13

Sequence: UUUUAGCAAUAUUACGAGUU
- self-splicing fitness (ln) (37 °C): -0.193 ± 0.24

Sequence: UUUUAGCAAUAUUACGAUAG
- self-splicing fitness (ln) (30 °C): -0.792 ± 0.26
- self-splicing fitness (ln) (37 °C): -0.639 ± 0.46

Sequence: UUUUAGCAAUAUUACGAUCU
- self-splicing fitness (ln) (30 °C): -0.719 ± 0.13
- self-splicing fitness (ln) (37 °C): -0.72 ± 0.15

Sequence: UUUUAGCAAUAUUACGCACU
- self-splicing fitness (ln) (30 °C): -0.447 ± 0.12
- self-splicing fitness (ln) (37 °C): -0.218 ± 0.15

Sequence: UUUUAGCAAUAUUACGCCAG
- self-splicing fitness (ln) (30 °C): -2.13 ± 0.47

Sequence: UUUUAGCAAUAUUACGCCCG
- self-splicing fitness (ln) (30 °C): -0.629 ± 0.33

Sequence: UUUUAGCAAUAUUACGCCUA
- self-splicing fitness (ln) (30 °C): -1 ± 0.2
- self-splicing fitness (ln) (37 °C): -0.553 ± 0.22

Sequence: UUUUAGCAAUAUUACGCGUG
- self-splicing fitness (ln) (30 °C): -0.683 ± 0.088
- self-splicing fitness (ln) (37 °C): -0.0858 ± 0.096

Sequence: UUUUAGCAAUAUUACGCUUA
- self-splicing fitness (ln) (30 °C): -1.1 ± 0.16
- self-splicing fitness (ln) (37 °C): -0.69 ± 0.15

Sequence: UUUUAGCAAUAUUACGGCUG
- self-splicing fitness (ln) (30 °C): -0.732 ± 0.48
- self-splicing fitness (ln) (37 °C): -0.495 ± 0.38

Sequence: UUUUAGCAAUAUUACGGGGA
- self-splicing fitness (ln) (30 °C): -1.56 ± 0.16
- self-splicing fitness (ln) (37 °C): -0.366 ± 0.14

Sequence: UUUUAGCAAUAUUACGGUUU
- self-splicing fitness (ln) (30 °C): -3.26 ± 0.47
- self-splicing fitness (ln) (37 °C): -0.0249 ± 0.25

Sequence: UUUUAGCAAUAUUACGUAGU
- self-splicing fitness (ln) (30 °C): -1.9 ± 0.37

Sequence: UUUUAGCAAUAUUACGUAUA
- self-splicing fitness (ln) (30 °C): -2.59 ± 0.42

Sequence: UUUUAGCAAUAUUACGUGCG
- self-splicing fitness (ln) (30 °C): -1.42 ± 0.17
- self-splicing fitness (ln) (37 °C): -0.84 ± 0.13

Sequence: UUUUAGCAAUAUUACGUGCU
- self-splicing fitness (ln) (30 °C): -2.43 ± 0.47
- self-splicing fitness (ln) (37 °C): -0.459 ± 0.22
